# Assay results reported in paper doi:10.1101/2021.07.31.454588.
# Molecular target: mCherry-LacRnls-IE1 1–540 (human herpesvirus 6B (HHV-6B))
# Experiment: LacO/LacR tethering assay
substance,measurement,value
"NBS1 (nibrin, NBN), endogenous (from UniProt O60934 1-754) (natural protein)",percent of mCherry-LacRnls fusion foci colocalized with NBS1 at the LacO array,81%
